This note sets out measurements from US6309872A, “Polypeptides having glucoamylase activity and nucleic acids encoding same” (Novozymes Biotech, Inc, priority 2000, dated 2001).

Substrate in the data set: OC[C@H]1O[C@H](O[C@H]2[C@H](O)[C@@H](O)[C@@H](O[C@H]3[C@H](O)[C@@H](O)C(O)O[C@@H]3CO)O[C@@H]2CO)[C@H](O)[C@@H](O)[C@@H]1O
Nature of the data set: purified protein, by the assay type. The settings on record: other: maltotriose hydrolysis at pH 4, enzyme 11 μg/ml or 0.18 μM.

B1: Thielavia terrestris ATCC 20627 glucoamylase, wild type, recombinant (expressed in Aspergillus oryzae), SEQ ID NO:2 (Thermothielavioides terrestris NRRL 8126) (protein)
chain: PEASRVRREGEVVKRSVDSFIATESPIALSNLLCNIGSTGCHASGVASGIVVASPDKTNPDYWYTWTRDSALTFKCVVDTFTNSYDASLQAEIQNYIVAQAHLQGVSNPSGSLSDGSGLGEPKFNVDMSQFTGAWGRPQRDGPALRAIALIAYSKWLISNGYTSTASSIVWPVIKNDLAYVAQYWNNTGFDLWEEVSGSSFFTVANQHRALVEGAALATSLGTSCSACSAVAPQILCFLQSFWSPSSGYILANINENNGRSAKDANTLLGSIHTFDPAAGCDAATFQPCSDRALANHKVVTDAFRSIYSINSGIAEGSAVAVGRYPEDSYFGGNPWYLNTLAAAEQLYDALYVWKKQGSITVTSTSLAFFKDFSSSITPGTYSSSTSTYTTLYNAISAYADGYMNIVAQYAQTNGSLSEQFSKTNGEPLSAYDLTWSYAAFLTAAARRAGVVPPSWGAASANSVPAQCSATSVVGSYTSATATSFPPSQTPASSTSAGSSPASSTTATATACSTPTAVAVTFNERVTTQWGQTIKVVGDAAALGGWDTSKAVPLSAAGYTASDPLWSGTVDLPAGLAVQYKYINVAADGGVTWEADPNHSFTVPAACGTTAVTRDDTWQ
For B1, the Michaelis-Menten constant (Km) (as a rule, the substrate concentration at which the rate is half of its maximum) is 330 ± 70 µM and the kcat entry is listed as “(5.5±0.5)×10^3 min^-1”.
